± gives the uncertainty stated by the source.
B1: Endonuclease CUE2, residues 9 to 47; numbered along this chain, P36075 (parent)
chain: HESKLSILMDMFPAISKSKLQVHLLENNNDLDLTIGLLL

Variants of: B1
Experiment: abundance fitness (aPCA) (normalised: wild type 0, dead -1); higher = more abundant; growth selection in yeast, the domain comes from the species named
Settings: Saccharomyces cerevisiae (strain ATCC 204508 / S288c)

Abundance fitness, by site and new letter:
N28: M -0.045 ± 0.062; S 0.035 ± 0.049; H -0.148 ± 0.18; A -0.024 ± 0.039; E 0.018 ± 0.039; R -0.085 ± 0.034; K 0.104 ± 0.066; T -0.353 ± 0.078; D 0.022 ± 0.12; C -0.329 ± 0.15; Q -0.053 ± 0.061; W -0.485 ± 0.092; G 0.025 ± 0.031; P -0.68 ± 0.11; V -0.469 ± 0.056
T34: C -0.091 ± 0.06; S -0.235 ± 0.045; E -0.903 ± 0.11; I -0.447 ± 0.13; A -0.092 ± 0.036; R -0.993 ± 0.099; D -0.88 ± 0.13; Q -0.899 ± 0.12; N -0.296 ± 0.45; P -0.943 ± 0.14; G -0.632 ± 0.059; V 0.008 ± 0.037; L -0.729 ± 0.059; W -1.19 ± 0.18; K -0.863 ± 0.37
L33: P -0.008 ± 0.05; R 0.082 ± 0.032; N 0.075 ± 0.057; G 0.031 ± 0.032; W -0.4 ± 0.051; Y -0.004 ± 0.047; S -0.034 ± 0.045; F -0.258 ± 0.053; T -0.004 ± 0.051; I -0.089 ± 0.062; H -0.456 ± 0.23; E 0.06 ± 0.042; Q -0.068 ± 0.062; D 0.031 ± 0.047; M -0.001 ± 0.046; V 0.03 ± 0.035; K 0.036 ± 0.061; C 0.012 ± 0.053
E26: S -0.131 ± 0.044; F -0.59 ± 0.25; L -0.288 ± 0.049; K -0.086 ± 0.14; Q -0.151 ± 0.086; C -0.331 ± 0.1; R -0.045 ± 0.032; G -0.123 ± 0.035; W -0.639 ± 0.071; A 0.047 ± 0.036; T -0.113 ± 0.047; M -0.176 ± 0.068; V -0.257 ± 0.046; N 0.381 ± 0.095; D -0.139 ± 0.13
S18: V 0.154 ± 0.036; L -0.103 ± 0.048; A -0.063 ± 0.036; P -0.214 ± 0.075; R -0.038 ± 0.033; M -0.11 ± 0.057; Q 0.082 ± 0.099; F 0.056 ± 0.094; D -0.164 ± 0.15; K -0.03 ± 0.077; T 0.015 ± 0.046; W -0.178 ± 0.044
K17: S -0.129 ± 0.048; M -0.307 ± 0.11; C -0.356 ± 0.12; W -0.471 ± 0.082; L -0.316 ± 0.057; G -0.255 ± 0.044; V -0.196 ± 0.042; T -0.263 ± 0.065; P -0.082 ± 0.039; D -0.286 ± 0.1; R -0.074 ± 0.037; I -0.387 ± 0.11; Q 0.013 ± 0.1; E -0.122 ± 0.04; A -0.156 ± 0.036; Y -0.077 ± 0.15; F -0.343 ± 0.069; H -0.085 ± 0.086
H23: K -0.338 ± 0.1; Q -0.151 ± 0.065; N -0.026 ± 0.089; L -0.139 ± 0.047; R -0.124 ± 0.034; A -0.075 ± 0.036; D -0.544 ± 0.11; G -0.342 ± 0.036; Y -0.154 ± 0.23; V -0.146 ± 0.037; E -0.163 ± 0.062; M -0.165 ± 0.052; P -0.622 ± 0.11; W -0.305 ± 0.056
D32: K -0.003 ± 0.079; R -0.091 ± 0.038; H -0.106 ± 0.056; N 0.07 ± 0.25; Y -0.659 ± 0.33; E -0.055 ± 0.054; A -0.124 ± 0.039; T -0.183 ± 0.052; V -0.302 ± 0.045; Q 0.032 ± 0.038; W -0.499 ± 0.068; L -0.416 ± 0.078; G -0.082 ± 0.034
G36: A 0.025 ± 0.036; E 0.067 ± 0.046; D 0.058 ± 0.064; F -0.14 ± 0.094; C -0.042 ± 0.055
D30: Q -0.194 ± 0.075; M 0.097 ± 0.22; L -0.66 ± 0.18; H -0.145 ± 0.2; K -0.165 ± 0.11; G -0.759 ± 0.067; A -0.286 ± 0.035; S -0.223 ± 0.072; R -0.246 ± 0.045; T -0.813 ± 0.17; C -0.261 ± 0.11; E -0.171 ± 0.042
K19: N 0.063 ± 0.079; R -0.01 ± 0.034; P -0.818 ± 0.08; F -0.123 ± 0.08; H -0.151 ± 0.077; W -0.248 ± 0.052; V -0.038 ± 0.034; D -0.081 ± 0.067; E -0.053 ± 0.042; Y -0.364 ± 0.071; L -0.143 ± 0.045; C -0.248 ± 0.096; S -0.059 ± 0.041; A -0.051 ± 0.035; M -0.095 ± 0.088; T -0.015 ± 0.047; Q -0.048 ± 0.044
I15: K -0.142 ± 0.054; L -0.08 ± 0.063; R -0.343 ± 0.043; G -0.735 ± 0.055; W -0.023 ± 0.038; S -0.214 ± 0.057; E -0.017 ± 0.042; D -0.293 ± 0.11; F 0.163 ± 0.18; H 0.022 ± 0.062; M -0.078 ± 0.055; Q -0.081 ± 0.048; V -0.115 ± 0.048; P -1 ± 0.2; T -0.115 ± 0.25
N29: H -0.117 ± 0.14; L -0.112 ± 0.058; Q 0.037 ± 0.082; C 0.052 ± 0.057; S -0.065 ± 0.05; P -0.324 ± 0.088; F -0.059 ± 0.3; D -0.082 ± 0.11; M -0.008 ± 0.063; K -0.364 ± 0.076; W 0.039 ± 0.038; R -0.222 ± 0.035; A -0.086 ± 0.041; V -0.262 ± 0.051; T -0.402 ± 0.088
L25: E 0.041 ± 0.049; M 0.043 ± 0.044; S -0.017 ± 0.047; T 0.048 ± 0.047; G 0.001 ± 0.035; P -0.952 ± 0.15; A 0.076 ± 0.037; D -0.181 ± 0.19; R 0.045 ± 0.033; Q 0.073 ± 0.13; C -0.002 ± 0.074; V 0.039 ± 0.042; N -0.333 ± 0.28; K -0.126 ± 0.058; W -0.065 ± 0.04
L24: R -0.855 ± 0.066; E -0.88 ± 0.12; Y -0.57 ± 0.4; Q -1.08 ± 0.42; W -1.05 ± 0.12; P -0.982 ± 0.21; T -0.595 ± 0.2; I -1 ± 0.24; V -0.849 ± 0.061; G -0.929 ± 0.07; M -0.31 ± 0.1; A -0.898 ± 0.091
P13: W -1.04 ± 0.14; T -0.861 ± 0.18; S -0.806 ± 0.12
N27: S -0.164 ± 0.044; P -0.997 ± 0.12; V -0.415 ± 0.062; K -0.267 ± 0.14; C -0.024 ± 0.07; W -0.364 ± 0.074; F -0.482 ± 0.25; E -0.134 ± 0.094; G -0.243 ± 0.042; R -0.244 ± 0.04; M -0.191 ± 0.077; T -0.273 ± 0.062; I -0.461 ± 0.41; L -0.325 ± 0.051; Q -0.132 ± 0.072
I35: D -0.78 ± 0.11; A -0.04 ± 0.043; Y -0.174 ± 0.058; N -0.532 ± 0.17; K 0.07 ± 0.048; R 0.07 ± 0.033; T -0.053 ± 0.051; G -0.596 ± 0.044; P -0.8 ± 0.14; F -0.75 ± 0.18; W -0.483 ± 0.071; M -0.065 ± 0.044; L -0.165 ± 0.036; C -0.114 ± 0.044; H -0.371 ± 0.12; S -0.153 ± 0.045; V -0.067 ± 0.04
L31: I -0.064 ± 0.17; N -0.881 ± 0.37; G -0.913 ± 0.084; W -0.694 ± 0.085; R -0.841 ± 0.072; C -0.388 ± 0.053; H -0.676 ± 0.27; Q -0.483 ± 0.077; P -1.01 ± 0.21; T -0.35 ± 0.046; K -0.752 ± 0.18; S -0.816 ± 0.093; M -0.211 ± 0.099; E -0.633 ± 0.11; V 0.136 ± 0.033
Q21: K -0.094 ± 0.047; M -0.089 ± 0.066; P -1.19 ± 0.42; F 0.012 ± 0.16; D -0.119 ± 0.064; N 0.807 ± 0.49; I 0.155 ± 0.1; S 0.033 ± 0.049; W -0.423 ± 0.046; E -0.021 ± 0.054; G -0.139 ± 0.041; L -0.24 ± 0.062; V -0.118 ± 0.039; T -0.128 ± 0.07; R -0.085 ± 0.034; H -0.124 ± 0.12; C -0.061 ± 0.048
L20: Q -0.705 ± 0.19; W -0.613 ± 0.058; S -0.656 ± 0.26; V -0.311 ± 0.048; C -0.058 ± 0.12; T -0.702 ± 0.16; H -0.559 ± 0.081; R -0.853 ± 0.079; E -0.748 ± 0.084; I 0.161 ± 0.19; K -0.838 ± 0.2
S16: C -0.133 ± 0.14; A -0.026 ± 0.043; T -0.179 ± 0.074; K -0.114 ± 0.055; E -0.09 ± 0.042; F -0.045 ± 0.1; P 0.025 ± 0.051; L -0.37 ± 0.046; G -0.167 ± 0.032; Q -0.057 ± 0.06; N -0.171 ± 0.074; M -0.395 ± 0.055; H 0.384 ± 0.22; V -0.29 ± 0.048; W -0.654 ± 0.11; R -0.15 ± 0.032; D -0.048 ± 0.068
V22: E -0.05 ± 0.04; G -0.071 ± 0.036; A -0.001 ± 0.04; R 0.026 ± 0.032; D -0.069 ± 0.11; M 0.019 ± 0.056; T -0.006 ± 0.044; C 0.119 ± 0.082; S -0.055 ± 0.051; L -0.08 ± 0.041; W -0.147 ± 0.039; P -0.464 ± 0.07; K 0.03 ± 0.045; I 0.039 ± 0.28
A14: V -0.079 ± 0.047; D -0.118 ± 0.13; M -0.133 ± 0.061; T -0.163 ± 0.22; E 0.068 ± 0.039; S 0.068 ± 0.046; R -0.018 ± 0.036; C -0.093 ± 0.068; L -0.053 ± 0.036; G 0.012 ± 0.031; F -0.033 ± 0.089; W -0.047 ± 0.034; Q 0.012 ± 0.045; P -0.383 ± 0.076
